Assay results from patent publication US20200054736A1.
One block for each substance: values may come before it.

Tests used:
[1] = target: meHER2-CAR, orientation Lc-Hc28ζ (meditope-enabled trastuzumab Fab-CAR); test: flow cytometry of meHer2 (Lc-Hc28ζ) T cells pre-bound to meditope peptide and stained with protein L. Untransduced control, same quadrant: 0.50%.
[2] = target: meHER2-CAR, orientation Hc28ζ-Lc (meditope-enabled trastuzumab Fab-CAR); test: flow cytometry of meHer2 (Hc28 ζ-Lc) T cells pre-bound to meditope peptide and stained with protein L. Untransduced control, same quadrant: 0.50%.
[3] = target: meHER2-CAR, orientation Lc-Hc28ζ (meditope-enabled trastuzumab Fab-CAR); test: flow cytometry of lentivirally transduced primary human T cells stained with Meditope-AF647, top trace meHer2 (Lc-Hc28ζ). Untransduced control on the sheet: 1.83% MFI:1306.
[4] = target: meHER2-CAR, orientation Hc28ζ-Lc (meditope-enabled trastuzumab Fab-CAR); test: flow cytometry of lentivirally transduced primary human T cells stained with Meditope-AF647, middle trace meHer2 (Hc28 ζ-Lc). Untransduced control on the sheet: 1.83% MFI:1306.
[5] = target: Fab of the meditope-Fab interaction (not specified); test: estimated; method not stated
[6] = target: original trastuzumab meFab; test: Kinexa experiments, 25° C. (data not shown)
[7] = target: meHER2-CAR, orientation Lc-Hc28ζ (meditope-enabled trastuzumab Fab-CAR); test: flow cytometry of meHer2 (Lc-Hc28ζ) T cells pre-bound to meditope peptide and stained with protein L. Untransduced control, same quadrant: 0.63%.
[8] = target: meHER2-CAR, orientation Lc-Hc28ζ (meditope-enabled trastuzumab Fab-CAR); test: flow cytometry of meHer2 (Lc-Hc28ζ) T cells pre-bound to meditope peptide and stained with protein L. Untransduced control, same quadrant: 7.23%.
[9] = target: meHER2-CAR, orientation Hc28ζ-Lc (meditope-enabled trastuzumab Fab-CAR); test: flow cytometry of meHer2 (Hc28 ζ-Lc) T cells pre-bound to meditope peptide and stained with protein L. Untransduced control, same quadrant: 0.63%.
[10] = target: meHER2-CAR, orientation Hc28ζ-Lc (meditope-enabled trastuzumab Fab-CAR); test: flow cytometry of meHer2 (Hc28 ζ-Lc) T cells pre-bound to meditope peptide and stained with protein L. Untransduced control, same quadrant: 7.23%.
[11] = target: meHER2-CAR, orientation Hc28ζ-Lc (meditope-enabled trastuzumab Fab-CAR); test: flow cytometry of lentivirally transduced primary human T cells stained with protein L, middle trace meHer2 (Hc28 ζ-Lc). Untransduced control on the sheet: 13.16% MFI:1418.

- % cells Meditope+ Protein L- (upper left quadrant) [1]: 2.09%
- % cells Meditope+ Protein L- (upper left quadrant) [2]: 2.6%
- % positive cells (marker gate) [3]: 57.1%
- % positive cells (marker gate) [4]: 54.4%
Substance: Meditope-AF647 (peptide)

- half-life of the complex [5]: > 80 days
- Kd [6]: 14 pM
- fold over the affinity of the individual components [6]: 87000 fold
Substance: meditope-protein L fusion (MPL)

- % cells Meditope+ Protein L+ (upper right quadrant) [7]: 43.1%
- % cells Meditope- Protein L+ (lower right quadrant) [8]: 16.1%
- % cells Meditope+ Protein L+ (upper right quadrant) [9]: 42.1%
- % cells Meditope- Protein L+ (lower right quadrant) [10]: 4.04%
- % positive cells (marker gate) [11]: 51.8%
Substance: protein L
